According to doi:10.1101/2025.10.26.684595:

Columns and labels:
[1] = target: mouse PIEZO1 in the cryo-EM complex with mouse MDFI (mouse) (UniProt E2JF22); assay: cryo-EM structure; conditions: remark: other sources report otherwise
[2] = target: human PIEZO2 in the cryo-EM complexes with MDFIC and MDFIC2 (human) (UniProt Q9H5I5); assay: cryo-EM structure

Row | Substance | stoichiometry N [1] | stoichiometry N [2]
1 | mouse PIEZO1 in the cryo-EM complex with mouse MDFI, E2JF22 1-2547 | 3 | –
2 | human PIEZO2 in the cryo-EM complexes with MDFIC and MDFIC2, Q9H5I5 | – | 3
